B3: human DISC1 fragment comprising residues 691-836 (C region) (domain or fragment, UniProt Q9NRI5 691-836, looked up)
chain: WEADLEACRLLIQSLQLQEARGSLSVEDERQMDDLEGAAPPIPPRLHSEDKRKTPLKVLEEWKTHLIPSLHCAGGEQKEESYILSAELGEKCEDIGKKLLYLEDQLHTAIHSHDEDLIQSLRRELQMVKETLQAMILQLQPAKEAG
notes: also called DISC1 C region; source: E. coli BL21 AI (pESPRIT002), purified (Ni2+-NTA, SEC); not shown: His tag, N-terminal, kept

The target of test [1] is T1, anti-DISC1 human Fc-VHH antibody (VHH B5 fused to human Fc) (Lama glama).
T1 construct: as the VHH of m1; also called VHH-Fc; VHH–Fc antibody; not shown: Fc (human), C-terminal, kept
The test is described as follows: far-Western, overlay or dot blot; western blot of purified His-tagged DISC1 truncation constructs probed with the VHH-Fc (conditioned medium) and an anti-human secondary antibody. The note with it: one partner purified. In general terms: In western blotting, separated proteins are transferred to a membrane and probed.

Test [2] addresses B3. The test is described as follows: SPR; Biacore T200, 25°C, PBS/0.05% Tween-20 pH 7.4; DISC1^691-836 amine-coupled to a CM5 chip (250 RU); VHH B5 19 nM to 1.5 uM injected in a single cycle; response levels against concentration fitted with Langmuir 1:1 model. The note with it: both partners purified. For orientation: In SPR one partner is held on a chip, and binding of the other changes the refractive index at the surface.

For test [3], the target named is B3. The experiment in a line: SEC + SPR; stoichiometry of the DISC1^691-836 - VHH B5 complex as supported by the SEC and SPR results. As to conditions: both partners purified.
Test [4] concerns the target T1, anti-DISC1 human Fc-VHH antibody (VHH …). The experiment in a line: far-Western, overlay or dot blot; western blot of lysates of NLF neuroblastoma cells transfected with human DISC1 or mouse Disc1, probed with the VHH-Fc (conditioned medium). The note with it: partners not purified.

We go through five molecules from PMC5764400, “Biophysical insights from a single chain camelid antibody directed against the Disrupted-in-Schizophrenia 1 protein” (PLoS ONE, 2018).

What is called Kd is the equilibrium constant for the complex coming apart. By stoichiometry N is commonly meant a count of units in the complex or per binding partner.

B1: human DISC1 fragment 598-715 (domain or fragment, UniProt Q9NRI5 598-715, looked up)
chain: GNHFWTAKDLTEEIRSLTSEREGLEGLLSKLLVLSSRNVKKLGSVKEDYNRLRREVEHQETAYETSVKENTMKYMETLKNKLCSCKCPLLGKVWEADLEACRLLIQSLQLQEARGSLS
notes: same vector as m3; source: E. coli BL21 AI (pESPRIT002), purified (Ni2+-NTA, SEC)
B1: in test [1], the binding result was “binds”.

B2: human DISC1 fragment 480-721 (domain or fragment, UniProt Q9NRI5 480-721, looked up)
chain: EAKDQQLRREIEEQEQQLQWQGCDLTPLVGQLSLGQLQEVSKALQDTLASAGQIPFHAEPPETIRSLQERIKSLNLSLKEITTKVCMSEKFCSTLRKKVNDIETQLPALLEAKMHAISGNHFWTAKDLTEEIRSLTSEREGLEGLLSKLLVLSSRNVKKLGSVKEDYNRLRREVEHQETAYETSVKENTMKYMETLKNKLCSCKCPLLGKVWEADLEACRLLIQSLQLQEARGSLSVEDERQ
notes: Disrupted-in-Schizophrenia 1 (DISC1), human, UniProtKB Q9NRI5, residues 480-721; same vector as m3; also called DISC1^480-721; source: E. coli BL21 AI (pESPRIT002), purified (Ni2+-NTA, SEC)
In the case of B2, the binding result in test [1] is given as “binds”.
The same measure, in the same setting: with B3 the entry was “binds”.

B4: anti-DISC1 VHH B5 antibody (VHH)
VHH: QVKLEESGGGLVQAGGSLRLSCAASGTLFSISVMGWYRQAPGMQRELVGSITDGGSTIYGDSVKGRFAISKDNAKRTIYLQMNSLKPEDTAVYYCNYRRLTSNYWGQGTQVTVSS
notes: Selected by phage display from an immunised llama; the homology model holds residues 1-120; PDB 3EZJ chain B is only the template of the homology model, not this VHH; also called clone B5; VHH domain B5; source: E. coli BL21 Rosetta (pET-22b, periplasm), purified (Ni2+-NTA, SEC)
B4 displayed a Kd in test [2] of 139 nM. In addition, in test [3], the “stoichiometry N” value turned out to be 1.

B5: full length human DISC1 (natural protein, UniProt Q9NRI5 1-854, looked up)
chain: MPGGGPQGAPAAAGGGGVSHRAGSRDCLPPAACFRRRRLARRPGYMRSSTGPGIGFLSPAVGTLFRFPGGVSGEESHHSESRARQCGLDSRGLLVRSPVSKSAAAPTVTSVRGTSAHFGIQLRGGTRLPDRLSWPCGPGSAGWQQEFAAMDSSETLDASWEAACSDGARRVRAAGSLPSAELSSNSCSPGCGPEVPPTPPGSHSAFTSSFSFIRLSLGSAGERGEAEGCPPSREAESHCQSPQEMGAKAASLDGPHEDPRCLSRPFSLLATRVSADLAQAARNSSRPERDMHSLPDMDPGSSSSLDPSLAGCGGDGSSGSGDAHSWDTLLRKWEPVLRDCLLRNRRQMEVISLRLKLQKLQEDAVENDDYDKAETLQQRLEDLEQEKISLHFQLPSRQPALSSFLGHLAAQVQAALRRGATQQASGDDTHTPLRMEPRLLEPTAQDSLHVSITRRDWLLQEKQQLQKEIEALQARMFVLEAKDQQLRREIEEQEQQLQWQGCDLTPLVGQLSLGQLQEVSKALQDTLASAGQIPFHAEPPETIRSLQERIKSLNLSLKEITTKVCMSEKFCSTLRKKVNDIETQLPALLEAKMHAISGNHFWTAKDLTEEIRSLTSEREGLEGLLSKLLVLSSRNVKKLGSVKEDYNRLRREVEHQETAYETSVKENTMKYMETLKNKLCSCKCPLLGKVWEADLEACRLLIQSLQLQEARGSLSVEDERQMDDLEGAAPPIPPRLHSEDKRKTPLKVLEEWKTHLIPSLHCAGGEQKEESYILSAELGEKCEDIGKKLLYLEDQLHTAIHSHDEDLIQSLRRELQMVKETLQAMILQLQPAKEAGEREAAASCMTAGVHEAQA
notes: Disrupted-in-Schizophrenia 1 (DISC1), human, UniProtKB Q9NRI5; source: NLF human neuroblastoma cells, transfected, in lysate
For the molecule B5, the binding result in test [4] was “binds”.
